Laboratory results as given in patent US7407939 (CUREGENICS, dated 2008).
Where no end group is shown, it is not given here. Side-chain parts run from the residue outwards. [ ]: non-standard residue; d: D form. The star is where a group is joined. SO2‑IQ = 5-aminoethylsulfoneamide isoquinoline, O=S(=O)(NCCN*)c1cccc2cnccc12; S‑IQ = 5-mercaptoaminopropyl isoquinoline; hLeu = CC(C)CC[C@H](N)C(=O)O; GltNH2 = not defined here; Nle = CCCC[C@H](N)C(=O)O; Orn = NCCC[C@H](N)C(=O)O; bGaba = not defined here; Dab = NCC[C@H](N)C(=O)O; Nva = CCC[C@H](N)C(=O)O; Abu = CC[C@H](N)C(=O)O; Dap = NC[C@H](N)C(=O)O; Ph2 = not defined here; GlyNH2 = aminoglycine; Ava = NCCCCC(=O)O; βAla = NCCC(=O)O

Biological target: protein kinase A, catalytic subunit
Experiment: cell-based or functional assay

Activity PKA | Binder
> 40 µM | RPRTS[Dap][hLeu] [TY 60002-96]
> 40 µM | RPRTSA[hLeu] [TY 60002-50]
> 40 µM | RPRVS[Abu]F [TY 60002-61]
> 40 µM | RPRTS[Abu][hLeu] [TY 60002-73]

Biological target: protein kinase A, catalytic subunit
Experiment: cell-based or functional assay
Remark: another data set of the same source

IC50 µM PKA | Binder
7.5 µM | RPRTS[GlyNH2]F [60005-5]
228 µM | RPRTS[Abu][hLeu] [TY 60002-73]
139 µM | RPR[Nva][GlyNH2]A[hLeu] [60006-5A]

Biological target: protein kinase A, catalytic subunit
Experiment: cell-based or functional assay
Remark: another data set of the same source

IC50 PKA | Binder
12 nM | RPR[Orn]E(SO2‑IQ)SF [PTR 6132]
100 nM | RPRTE(S‑IQ)SF [PTR 6104]
100 nM | RPRTE([βAla-S‑IQ])SF [PTR 6102]

Biological target: protein kinase A, catalytic subunit
Experiment: cell-based or functional assay
Remark: another data set of the same source

Binder | % Inhibition PKA
RPRTS[GlyNH2]F [60005-5] | 40%
RPR[Nva][GlyNH2][GltNH2][hLeu] (reading uncertain) [60006-16A] | 21%
RPR[Nva][GlyNH2][Abu][hLeu] [60006-7B] | 24%
RPR[Nva][GlyNH2]A[hLeu] [60006-5A] | 10%
RPR[Nva][GlyNH2][Dap][Ph2] (reading uncertain) [60006-11B] | 20%

More lines, now with the values ahead:

% Inhibition PKA | Binder
2% | RPRTSA[hLeu] [TY 60002-50]
8% | RPRTS[Abu][hLeu] [TY 60002-73]

Biological target: protein kinase A, catalytic subunit
Experiment: cell-based or functional assay
Remark: another data set of the same source

Binder | PKA IC50
RPRTE([Ava-SO2‑IQ])SF [PTR 6090] | 0.6 µM
RPRTE(SO2‑IQ)SF [PTR 6016] | 0.1 µM
RPRTE(S‑IQ)SF [PTR 6104] | 0.1 µM
RPRTE([βAla-SO2‑IQ])SF [PTR 6082] | 0.2 µM
RPR[Orn]E([bGaba-SO2‑IQ])SF (reading uncertain) [PTR 6088] | 1 µM
RPR[Nle]E([βAla-SO2‑IQ])S[Nle] [PTR 6096] | 0.2 µM
RPR[Nle]E([βAla-SO2‑IQ])SF [PTR 6086] | 0.5 µM
RPRTE([βAla-S‑IQ])SF [PTR 6102] | 0.1 µM

Continued, values first:

PKA IC50 | Binder
0.012 µM | RPR[Orn]E(SO2‑IQ)SF [PTR 6132]
0.1 µM | RPR[Nle]E(SO2‑IQ)SF [PTR 6128]
5 µM | RPR[Nva]E([βAla-SO2‑IQ])A[hLeu] [PTR 6152]
0.053 µM | RPRTD(SO2‑IQ)SF [PTR 6130]
0.195 µM | RPR[Nle]E([βAla-SO2‑IQ])[Dab]F [PTR 6140]
